In patent US20200223912A1 (Hoffmann-La Roche, published 2020):

B1: VH32/VL21 (antibody, V domains shown)
VH: EVQVLESGGGLVQPGGSLRLSCAVSGFSLSSNAINWVRQAPGKGLEWVGYIAVSGNTYYASWAKGRFTISRDNSKNTVYLQMNSLRAEDTAVYYCGKSNIWGQGTLVTVSS
VL: AQVMTQSPSSLSASVGDRVTITCRSSQSVRTNKLAWFQQKPGQPPKRLIYSASTLDFGVPSRFSGSGSGTEFTLTISSLQPEDFATYYCLGYFDSSADIVAFGGGTKVEIK
B2: VH32/VL22 (antibody, V domains shown)
VH: EVQVLESGGGLVQPGGSLRLSCAVSGFSLSSNAINWVRQAPGKGLEWVGYIAVSGNTYYASWAKGRFTISRDNSKNTVYLQMNSLRAEDTAVYYCGKSNIWGQGTLVTVSS
VL: AQVMTQSPSSLSASVGDRVTITCRSSQSVRTNRLAWFQQKPGQPPKRLIYSASTLDYGVPSRFSGSGSGTEFTLTISSLQPEDFATYYCLGYFDSSADIVAFGGGTKVEIK

Molecular target: T1, full length human Tau (not phosphorylated) (human, UniProt P10636 1-758)
T1 construct: Human Tau isoform F, 441 residues; also called full length tau; Tau protein
T1 sequence (P10636 other isoform, or with tags, fused parts or gaps limits assumed): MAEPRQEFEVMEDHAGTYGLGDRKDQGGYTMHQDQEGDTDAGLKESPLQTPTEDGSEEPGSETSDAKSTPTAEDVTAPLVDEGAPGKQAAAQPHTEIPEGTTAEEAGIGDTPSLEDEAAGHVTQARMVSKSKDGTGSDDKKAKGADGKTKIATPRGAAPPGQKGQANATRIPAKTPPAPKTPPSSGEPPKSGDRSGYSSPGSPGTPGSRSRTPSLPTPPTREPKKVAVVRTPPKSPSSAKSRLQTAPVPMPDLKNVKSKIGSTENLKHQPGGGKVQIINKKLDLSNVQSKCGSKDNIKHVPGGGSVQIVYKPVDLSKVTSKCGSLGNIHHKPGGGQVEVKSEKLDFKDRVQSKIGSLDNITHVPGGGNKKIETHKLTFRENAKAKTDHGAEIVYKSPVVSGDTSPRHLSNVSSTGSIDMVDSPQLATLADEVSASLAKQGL
Assay: Western blot on recombinant Tau, all antibodies 1 ug/ml

Binder	binding result
B1	no binding (tested: 1 ug/ml)
B2	no binding (tested: 1 ug/ml)
